A word on the IC50: it is the concentration that inhibits the measured activity by half. A low value points to inhibition by little substance.

Bridges are numbered along the chain shown (N, C = ends). Primed or numbered codes have the meaning given here. Where no end group is shown, it is not given here. [ ]: non-standard residue; d: D form. Bip = N[C@@H](Cc1ccc(-c2ccccc2)cc1)C(=O)O; 1Nal = N[C@@H](Cc1cccc2ccccc12)C(=O)O; NMeH = CN[C@@H](Cc1c[nH]cn1)C(=O)O; NMeE = CN[C@@H](CCC(=O)O)C(=O)O; Aic′ = not defined here; Aib = CC(C)(N)C(=O)O; PEG1 = NCCOCCC(=O)O; AEA = NCCOCC(=O)O

T1: IL23R_huFC (human, UniProt Q5VWK5 24-353)
T1 sequence (looked up): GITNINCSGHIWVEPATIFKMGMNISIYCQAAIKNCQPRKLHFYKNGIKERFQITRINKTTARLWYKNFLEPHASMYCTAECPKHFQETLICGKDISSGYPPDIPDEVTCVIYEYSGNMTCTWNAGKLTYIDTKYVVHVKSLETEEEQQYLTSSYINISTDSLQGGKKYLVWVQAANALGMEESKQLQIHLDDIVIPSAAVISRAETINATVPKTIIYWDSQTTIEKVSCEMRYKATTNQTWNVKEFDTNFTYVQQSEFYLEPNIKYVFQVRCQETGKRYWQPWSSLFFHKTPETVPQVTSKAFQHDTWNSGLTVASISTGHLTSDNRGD

B1: Ac-CADWVCY-[Bip]-HTFG-[AEA]-[(D)Lys]-NH2 (peptide)
peptide: Ac-CADWVCY[Bip]HTFG[AEA][dK]-NH2
modifications: disulfide 1-6
SMILES: CC(=O)N[C@H]1CSSC[C@@H](C(=O)N[C@@H](Cc2ccc(O)cc2)C(=O)N[C@@H](Cc2ccc(-c3ccccc3)cc2)C(=O)N[C@@H](Cc2c[nH]cn2)C(=O)N[C@H](C(=O)N[C@@H](Cc2ccccc2)C(=O)NCC(=O)NCCOCC(=O)N[C@H](CCCCN)C(N)=O)[C@@H](C)O)NC(=O)[C@H](C(C)C)NC(=O)[C@H](Cc2c[nH]c3ccccc23)NC(=O)[C@H](CC(=O)O)NC(=O)[C@H](C)NC1=O
B2: Ac-CADWVCY-[1-Nal]-[N-Me-His]-[(D)Ala]-F-[Aib]-NH2 (peptide)
peptide: Ac-CADWVCY[1Nal][NMeH][dA]F[Aib]-NH2
modifications: disulfide 1-6
SMILES: CC(=O)N[C@H]1CSSC[C@@H](C(=O)N[C@@H](Cc2ccc(O)cc2)C(=O)N[C@@H](Cc2cccc3ccccc23)C(=O)N(C)[C@@H](Cc2c[nH]cn2)C(=O)N[C@H](C)C(=O)N[C@@H](Cc2ccccc2)C(=O)NC(C)(C)C(N)=O)NC(=O)[C@H](C(C)C)NC(=O)[C@H](Cc2c[nH]c3ccccc23)NC(=O)[C@H](CC(=O)O)NC(=O)[C@H](C)NC1=O
B3: Ac-CADWVCY-[1-Nal]-H-[Aib]-[(D)Phe]-G-NH2 (peptide)
peptide: Ac-CADWVCY[1Nal]H[Aib][dF]G-NH2
modifications: disulfide 1-6
SMILES: CC(=O)N[C@H]1CSSC[C@@H](C(=O)N[C@@H](Cc2ccc(O)cc2)C(=O)N[C@@H](Cc2cccc3ccccc23)C(=O)N[C@@H](Cc2c[nH]cn2)C(=O)NC(C)(C)C(=O)N[C@H](Cc2ccccc2)C(=O)NCC(N)=O)NC(=O)[C@H](C(C)C)NC(=O)[C@H](Cc2c[nH]c3ccccc23)NC(=O)[C@H](CC(=O)O)NC(=O)[C@H](C)NC1=O
B4: Ac-CADWVCY-[1-Nal]-H-[AEP]-G-NH2 (peptide)
peptide: Ac-CADWVCY[1Nal]H[PEG1]G-NH2
modifications: disulfide 1-6
SMILES: CC(=O)N[C@H]1CSSC[C@@H](C(=O)N[C@@H](Cc2ccc(O)cc2)C(=O)N[C@@H](Cc2cccc3ccccc23)C(=O)N[C@@H](Cc2c[nH]cn2)C(=O)NCCOCCC(=O)NCC(N)=O)NC(=O)[C@H](C(C)C)NC(=O)[C@H](Cc2c[nH]c3ccccc23)NC(=O)[C@H](CC(=O)O)NC(=O)[C@H](C)NC1=O
B5: Ac-CADWVCY-[1-Nal]-H-[Aib]-FG-NH2 (peptide)
peptide: Ac-CADWVCY[1Nal]H[Aib]FG-NH2
modifications: disulfide 1-6
SMILES: CC(=O)N[C@H]1CSSC[C@@H](C(=O)N[C@@H](Cc2ccc(O)cc2)C(=O)N[C@@H](Cc2cccc3ccccc23)C(=O)N[C@@H](Cc2c[nH]cn2)C(=O)NC(C)(C)C(=O)N[C@@H](Cc2ccccc2)C(=O)NCC(N)=O)NC(=O)[C@H](C(C)C)NC(=O)[C@H](Cc2c[nH]c3ccccc23)NC(=O)[C@H](CC(=O)O)NC(=O)[C@H](C)NC1=O
B6: Ac-CADWVCY-[1-Nal]-HTF-[Aib]-NH2 (peptide)
peptide: Ac-CADWVCY[1Nal]HTF[Aib]-NH2
modifications: disulfide 1-6
SMILES: CC(=O)N[C@H]1CSSC[C@@H](C(=O)N[C@@H](Cc2ccc(O)cc2)C(=O)N[C@@H](Cc2cccc3ccccc23)C(=O)N[C@@H](Cc2c[nH]cn2)C(=O)N[C@H](C(=O)N[C@@H](Cc2ccccc2)C(=O)NC(C)(C)C(N)=O)[C@@H](C)O)NC(=O)[C@H](C(C)C)NC(=O)[C@H](Cc2c[nH]c3ccccc23)NC(=O)[C@H](CC(=O)O)NC(=O)[C@H](C)NC1=O
B7: Ac-CQTWQCYWRENG-[AEA]-[(D)-Lys]-NH2 (peptide)
peptide: Ac-CQTWQCYWRENG[AEA][dK]-NH2
modifications: disulfide 1-6
SMILES: CC(=O)N[C@H]1CSSC[C@@H](C(=O)N[C@@H](Cc2ccc(O)cc2)C(=O)N[C@@H](Cc2c[nH]c3ccccc23)C(=O)N[C@@H](CCCNC(=N)N)C(=O)N[C@@H](CCC(=O)O)C(=O)N[C@@H](CC(N)=O)C(=O)NCC(=O)NCCOCC(=O)N[C@H](CCCCN)C(N)=O)NC(=O)[C@H](CCC(N)=O)NC(=O)[C@H](Cc2c[nH]c3ccccc23)NC(=O)[C@H]([C@@H](C)O)NC(=O)[C@H](CCC(N)=O)NC1=O
B8: Ac-CQTWQCYWRENG-[AEA]-[(D)Arg]-NH2 (peptide)
peptide: Ac-CQTWQCYWRENG[AEA][dR]-NH2
modifications: disulfide 1-6
SMILES: CC(=O)N[C@H]1CSSC[C@@H](C(=O)N[C@@H](Cc2ccc(O)cc2)C(=O)N[C@@H](Cc2c[nH]c3ccccc23)C(=O)N[C@@H](CCCNC(=N)N)C(=O)N[C@@H](CCC(=O)O)C(=O)N[C@@H](CC(N)=O)C(=O)NCC(=O)NCCOCC(=O)N[C@H](CCCNC(=N)N)C(N)=O)NC(=O)[C@H](CCC(N)=O)NC(=O)[C@H](Cc2c[nH]c3ccccc23)NC(=O)[C@H]([C@@H](C)O)NC(=O)[C@H](CCC(N)=O)NC1=O
B9: Ac-CQTWQCYWRKNG-[AEA]-[(D)-Lys]-NH2 (peptide)
peptide: Ac-CQTWQCYWRKNG[AEA][dK]-NH2
modifications: disulfide 1-6
SMILES: CC(=O)N[C@H]1CSSC[C@@H](C(=O)N[C@@H](Cc2ccc(O)cc2)C(=O)N[C@@H](Cc2c[nH]c3ccccc23)C(=O)N[C@@H](CCCNC(=N)N)C(=O)N[C@@H](CCCCN)C(=O)N[C@@H](CC(N)=O)C(=O)NCC(=O)NCCOCC(=O)N[C@H](CCCCN)C(N)=O)NC(=O)[C@H](CCC(N)=O)NC(=O)[C@H](Cc2c[nH]c3ccccc23)NC(=O)[C@H]([C@@H](C)O)NC(=O)[C@H](CCC(N)=O)NC1=O
B10: Ac-CQTWQCYWRENG-[AEA]-[(D)-Lys]-NH2 (peptide)
peptide: Ac-CQTWQCYWRENG[AEA][dK]-NH2
modifications: disulfide 1-6
SMILES: CC(=O)N[C@H]1CSSC[C@@H](C(=O)N[C@@H](Cc2ccc(O)cc2)C(=O)N[C@@H](Cc2c[nH]c3ccccc23)C(=O)N[C@@H](CCCNC(=N)N)C(=O)N[C@@H](CCC(=O)O)C(=O)N[C@@H](CC(N)=O)C(=O)NCC(=O)NCCOCC(=O)N[C@H](CCCCN)C(N)=O)NC(=O)[C@H](CCC(N)=O)NC(=O)[C@H](Cc2c[nH]c3ccccc23)NC(=O)[C@H]([C@@H](C)O)NC(=O)[C@H](CCC(N)=O)NC1=O
B11: Ac-CQTWQCYWRENG-[AEA]-[(D)-Lys]-NH2 (peptide)
peptide: Ac-CQTWQCYWRENG[AEA][dK]-NH2
modifications: disulfide 1-6
SMILES: CC(=O)N[C@H]1CSSC[C@@H](C(=O)N[C@@H](Cc2ccc(O)cc2)C(=O)N[C@@H](Cc2c[nH]c3ccccc23)C(=O)N[C@@H](CCCNC(=N)N)C(=O)N[C@@H](CCC(=O)O)C(=O)N[C@@H](CC(N)=O)C(=O)NCC(=O)NCCOCC(=O)N[C@H](CCCCN)C(N)=O)NC(=O)[C@H](CCC(N)=O)NC(=O)[C@H](Cc2c[nH]c3ccccc23)NC(=O)[C@H]([C@@H](C)O)NC(=O)[C@H](CCC(N)=O)NC1=O
B12: Ac-CQTWQCYWRKNG-[AEA]-[(D)-Lys]-NH2 (peptide)
peptide: Ac-CQTWQCYWRKNG[AEA][dK]-NH2
modifications: disulfide 1-6
SMILES: CC(=O)N[C@H]1CSSC[C@@H](C(=O)N[C@@H](Cc2ccc(O)cc2)C(=O)N[C@@H](Cc2c[nH]c3ccccc23)C(=O)N[C@@H](CCCNC(=N)N)C(=O)N[C@@H](CCCCN)C(=O)N[C@@H](CC(N)=O)C(=O)NCC(=O)NCCOCC(=O)N[C@H](CCCCN)C(N)=O)NC(=O)[C@H](CCC(N)=O)NC(=O)[C@H](Cc2c[nH]c3ccccc23)NC(=O)[C@H]([C@@H](C)O)NC(=O)[C@H](CCC(N)=O)NC1=O
B13: Ac-CQTWQCYWRRNG-[AEA]-[(D)-Lys]-NH2 (peptide)
peptide: Ac-CQTWQCYWRRNG[AEA][dK]-NH2
modifications: disulfide 1-6
SMILES: CC(=O)N[C@H]1CSSC[C@@H](C(=O)N[C@@H](Cc2ccc(O)cc2)C(=O)N[C@@H](Cc2c[nH]c3ccccc23)C(=O)N[C@@H](CCCNC(=N)N)C(=O)N[C@@H](CCCNC(=N)N)C(=O)N[C@@H](CC(N)=O)C(=O)NCC(=O)NCCOCC(=O)N[C@H](CCCCN)C(N)=O)NC(=O)[C@H](CCC(N)=O)NC(=O)[C@H](Cc2c[nH]c3ccccc23)NC(=O)[C@H]([C@@H](C)O)NC(=O)[C@H](CCC(N)=O)NC1=O

The target of one assay is T1, IL23R_huFC. Nature of the assay: IL23-IL23R competitive ELISA. A general note: An ELISA detects its analyte on a solid surface through an enzyme-linked reagent.
B1 gave an IC50 of more than 1000 nM.
On the same count and under the same terms, the value for CADWVCYXHTFX ([1-Nal]; [Sarc]; disulfide) [Hy-CADWVCY-[1-Nal]-HTF-[Sarc]-OH] was more than 1000 nM; that for B2 was more than 1000 nM.
Still for that read-out and setting: the value for Ac-CADWVCYWHRCGWWGC-NH2 (disulfide (positions not given here)) [Ac-CADWVCYWHRCGWWGC-NH2] was more than 1000 nM; that for B3 was more than 1000 nM.
Consider Ac-CQTWQCYW[NMeE]NG[AEA][dK] (disulfide 1-6 (inferred)) [Ac-CQTWQCYW[N-MeGlu]-NG-[AEA]-[(D)-Lys]], for which the IC50 was more than 1000 nM.
Same read-out and setting: the value for H-CADWVCY[1Nal]HT[dF]-OH (disulfide 1-6 (inferred)) [Hy-CADWVCY-[1-Nal]-HT-[(D)Phe]-OH] was more than 1000 nM.
The same measure, in the same setting: the value for Ac-CADWVCY[Aic′]HTFG[AEA][dK]-NH2 (disulfide 1-6) [Ac-CADWVCY-[Aic]-HTFG-[AEA]-[(D)Lys]-NH2] was more than 1000 nM.
As for B4, the IC50 is more than 1000 nM.
On the same count and under the same terms, under Ac-CADWVC-NH2 (disulfide 1-6 (inferred)) [Ac-CADWVC-NH2] stands more than 1000 nM.
Still for that read-out and setting: the value for B5 was more than 1000 nM; that for B6 was more than 1000 nM; that for CADWXCYXHTF ([Sarc]; [1-Nal]; disulfide) [Hy-CADW-[Sarc]-CY-[1-Nal]-HTF-OH] was more than 1000 nM.

The target of the next assay is T1, IL23R_huFC. Kind of assay: IL23-IL23R competitive ELISA. This is another data set of the same source.
Ac-CQDWQCYWRENG[AEA][dK]-NH2 (disulfide 1-6 (inferred)) [Ac-CQDWQCYWRENG-[AEA]-[(D)-Lys]-NH2]: the IC50 was less than 500 nM.
With B7, the half-inhibitory concentration (IC50) was less than 500 nM.
On the same count and under the same terms, under B8 stands less than 500 nM; under B9, less than 500 nM.
The same measure, in the same setting: the value for B10 was less than 500 nM.
In turn, B11 came in with a half-maximal inhibitory concentration (IC50) of less than 500 nM.
The molecule B12 showed an IC50 of less than 500 nM.
Still for that read-out and setting: under B13 stands less than 500 nM.

The values are drawn from patent publication US20190300590A1 (PROTAGONIST THERAPEUTICS, published 2019).
